Data: US20220267441A1

Key:
[1] = target: purified cynomolgus CD45 ectodomain (cynomolgus monkey); test: BLI (Octet Red96), antibody on anti-human Fc sensor, 300 nM cynomolgus CD45 ectodomain, 1:1 fit
[2] = target: purified cynomolgus CD45 ectodomain (cynomolgus monkey); test: BLI (Octet Red96), Table 11; the sentence does not name the species of CD45
[3] = target: purified cynomolgus CD45 ectodomain (cynomolgus monkey); test: BLI (Octet Red96), IgG on anti-human Fc sensor, 50 nM CD45 ectodomain, 1:1 fit
[4] = target: purified rhesus CD45 ectodomain (rhesus macaque); test: as above
Chain of purified rhesus CD45 ectodomain (rhesus macaque) (chain, as listed by the source limits assumed, form in doubt): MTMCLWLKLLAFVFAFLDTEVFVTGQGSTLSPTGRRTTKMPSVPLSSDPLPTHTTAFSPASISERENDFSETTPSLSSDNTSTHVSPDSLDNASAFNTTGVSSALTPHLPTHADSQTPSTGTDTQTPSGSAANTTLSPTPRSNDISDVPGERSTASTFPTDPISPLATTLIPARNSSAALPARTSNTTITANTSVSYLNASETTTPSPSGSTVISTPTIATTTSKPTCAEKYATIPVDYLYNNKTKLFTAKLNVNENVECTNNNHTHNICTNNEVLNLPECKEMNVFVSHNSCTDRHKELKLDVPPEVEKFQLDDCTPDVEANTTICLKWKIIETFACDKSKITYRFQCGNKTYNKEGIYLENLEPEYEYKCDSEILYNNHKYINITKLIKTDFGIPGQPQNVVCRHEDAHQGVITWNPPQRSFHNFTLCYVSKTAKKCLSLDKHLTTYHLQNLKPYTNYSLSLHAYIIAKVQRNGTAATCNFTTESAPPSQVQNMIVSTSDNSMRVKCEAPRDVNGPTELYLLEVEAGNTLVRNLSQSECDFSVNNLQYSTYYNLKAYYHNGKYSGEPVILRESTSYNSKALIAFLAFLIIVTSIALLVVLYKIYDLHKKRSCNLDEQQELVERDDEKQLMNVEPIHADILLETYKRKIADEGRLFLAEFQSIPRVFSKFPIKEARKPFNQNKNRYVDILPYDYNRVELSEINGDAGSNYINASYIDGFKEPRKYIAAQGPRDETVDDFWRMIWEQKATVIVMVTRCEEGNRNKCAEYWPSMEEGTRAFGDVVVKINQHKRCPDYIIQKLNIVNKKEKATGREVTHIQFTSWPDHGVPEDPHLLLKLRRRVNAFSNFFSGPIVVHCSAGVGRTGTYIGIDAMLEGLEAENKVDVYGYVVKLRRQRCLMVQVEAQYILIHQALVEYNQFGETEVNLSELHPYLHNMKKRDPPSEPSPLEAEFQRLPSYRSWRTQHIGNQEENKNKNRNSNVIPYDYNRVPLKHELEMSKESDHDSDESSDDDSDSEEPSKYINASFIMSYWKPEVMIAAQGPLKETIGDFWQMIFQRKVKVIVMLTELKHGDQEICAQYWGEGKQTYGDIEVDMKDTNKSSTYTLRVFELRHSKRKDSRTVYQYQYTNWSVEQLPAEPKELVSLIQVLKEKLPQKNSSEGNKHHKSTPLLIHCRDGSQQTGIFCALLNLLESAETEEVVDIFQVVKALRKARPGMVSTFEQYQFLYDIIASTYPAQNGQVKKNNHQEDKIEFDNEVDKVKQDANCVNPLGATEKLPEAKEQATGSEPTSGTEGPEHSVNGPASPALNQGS

Chain of purified cynomolgus CD45 ectodomain (cynomolgus monkey) (chain, as listed by the source limits assumed, form in doubt): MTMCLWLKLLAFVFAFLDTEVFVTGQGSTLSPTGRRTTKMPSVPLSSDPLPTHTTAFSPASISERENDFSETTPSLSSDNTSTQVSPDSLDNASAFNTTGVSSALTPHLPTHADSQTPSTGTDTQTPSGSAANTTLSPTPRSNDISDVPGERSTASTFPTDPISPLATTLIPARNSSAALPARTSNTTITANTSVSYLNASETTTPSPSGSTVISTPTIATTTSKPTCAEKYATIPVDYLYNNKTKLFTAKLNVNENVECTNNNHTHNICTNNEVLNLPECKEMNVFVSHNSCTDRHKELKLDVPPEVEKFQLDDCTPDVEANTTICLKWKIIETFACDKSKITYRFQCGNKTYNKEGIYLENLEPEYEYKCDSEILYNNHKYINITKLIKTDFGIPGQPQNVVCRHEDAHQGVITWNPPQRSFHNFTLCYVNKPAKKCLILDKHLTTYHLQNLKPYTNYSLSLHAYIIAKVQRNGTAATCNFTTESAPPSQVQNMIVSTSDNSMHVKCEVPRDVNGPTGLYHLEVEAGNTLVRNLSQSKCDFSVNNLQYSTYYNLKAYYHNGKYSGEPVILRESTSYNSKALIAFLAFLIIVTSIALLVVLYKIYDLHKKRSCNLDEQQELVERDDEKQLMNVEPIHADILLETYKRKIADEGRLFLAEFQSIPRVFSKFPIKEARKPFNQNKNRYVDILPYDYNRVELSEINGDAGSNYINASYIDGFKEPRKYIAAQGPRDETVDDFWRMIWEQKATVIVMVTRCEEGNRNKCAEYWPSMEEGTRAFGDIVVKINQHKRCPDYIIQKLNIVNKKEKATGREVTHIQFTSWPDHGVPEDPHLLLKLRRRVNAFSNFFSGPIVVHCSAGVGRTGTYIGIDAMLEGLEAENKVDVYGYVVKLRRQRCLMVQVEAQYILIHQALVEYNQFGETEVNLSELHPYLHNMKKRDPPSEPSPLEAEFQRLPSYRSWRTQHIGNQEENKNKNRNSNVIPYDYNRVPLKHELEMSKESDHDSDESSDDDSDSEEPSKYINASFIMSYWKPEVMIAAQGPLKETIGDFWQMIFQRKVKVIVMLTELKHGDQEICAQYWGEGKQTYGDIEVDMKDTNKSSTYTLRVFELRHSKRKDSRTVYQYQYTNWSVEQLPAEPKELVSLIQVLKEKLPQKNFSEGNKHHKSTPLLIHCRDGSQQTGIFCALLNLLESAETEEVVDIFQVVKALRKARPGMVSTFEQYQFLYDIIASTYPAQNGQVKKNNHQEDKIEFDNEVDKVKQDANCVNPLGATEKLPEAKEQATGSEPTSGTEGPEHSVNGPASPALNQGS

Row | Binder | Kd [1] | koff [1] | kon [1] | fold improved affinity over the parent clone C [2] | Kd [3] | koff [3] | kon [3] | Kd [4] | koff [4] | kon [4]
1 | Antibody 2 (Ab2) (antibody, V domains shown) VH: EVQLVESGGGLVQPGGSLRLSCAASGFTFEAYSMNWVRQAPGKGLEWVSYISLSGATIHYADSVKGRFTISRDNAKNSLYLQMNSLRAEDTAVYYCARGGQYYYDSSDYGEVAFDIWGQGTMVTVSS VL: DIVMTQSPLSLPVTPGEPASISCRSSQSLVSNGYNYLDWYLQKPGQSPQLLIYFGSSRASGVPDRFSGSGSGTDFTLKISRVEAEDVGVYYCMQRRRTPWSFGGGTKVEIK |  |  |  |  | 1.08 nM | 0.000129 s⁻¹ | 119000 M⁻¹ s⁻¹ | 1.42 nM | 0.000192 s⁻¹ | 135000 M⁻¹ s⁻¹
2 | Antibody 6 (Ab6) (antibody, V domains shown) VH: EVQLVESGGGLVQPGGSLRLSCAASGFTFEAYSMNWVRQAPGKGLEWVSYISLSGATIHYADSVKGRFTISRDNAKNSLYLQMNSLRAEDTAVYYCARGGQYYYTSSDYGEVAFDIWGQGTLVTVSS VL: DIVLTQSPLSLPVTPGEPASISCRSSQSLVSSGYNYLDWYLQKPGQSPQLLIYFGSSRASGVPDRFSGSGSGTDFTLKISRVEAEDVGVYYCMQRRRTPWSFGGGTKVEIK |  |  |  |  | 1.3 nM | 0.000154 s⁻¹ | 118000 M⁻¹ s⁻¹ | 1.44 nM | 0.000175 s⁻¹ | 122000 M⁻¹ s⁻¹
3 | Antibody 4 (Ab4) (antibody, V domains shown) VH: EVQLVESGGGLVQPGGSLRLSCAASGFTFEAYSMNWVRQAPGKGLEWVSYISLSGATIHYADSVKGRFTISRDNAKNSLYLQMNSLRAEDTAVYYCARGGQYYYTSSDYGEVAFDIWGQGTMVTVSS VL: DIVMTQSPLSLPVTPGEPASISCRSSQSLVSNGYNYLDWYLQKPGQSPQLLIYFGSSRASGVPDRFSGSGSGTDFTLKISRVEAEDVGVYYCMQRRRTPWSFGGGTKVEIK |  |  |  |  | 0.721 nM | 7.89e-05 s⁻¹ | 110000 M⁻¹ s⁻¹ | 0.867 nM | 0.000102 s⁻¹ | 118000 M⁻¹ s⁻¹
4 | Antibody 3 (Ab3) (antibody, V domains shown) VH: QVQLVESGGGLVKPGGSLRLSCAASGFTFGGYSMNWVRQAPGKGLEWVSYISISGATITYADSVKGRFTISRDNAKNSLYLQMNSLRAEDTAVYYCARGGQYYYDSSDYGEVAFDIWGQGTMVTVSS VL: DIVMTQSPLSLPVTPGEPASISCRSSQSLVSNGYNYLDWYLQKPGQSPQLLIYFGSSRASGVPDRFSGSGSGTDFTLKISRVEAEDVGVYYCMQRRRTPPFTFGGGTKVEIK |  |  |  |  | 1.61 nM | 0.000192 s⁻¹ | 120000 M⁻¹ s⁻¹ | 1.65 nM | 0.000222 s⁻¹ | 135000 M⁻¹ s⁻¹
5 | Antibody 5 (Ab5) (antibody, V domains shown) VH: EVQLVESGGGLVQPGGSLRLSCAASGFTFEAYSMNWVRQAPGKGLEWVSYISLSGATIHYADSVKGRFTISRDNAKNSLYLQMNSLRAEDTAVYYCARGGQYYYTSSDYGEVAFDIWGQGTMVTVSS VL: DIVMTQSPLSLPVTPGEPASISCRSSQSLVSSGYNYLDWYLQKPGQSPQLLIYFGSSRASGVPDRFSGSGSGTDFTLKISRVEAEDVGVYYCMQRRRTPWSFGGGTKVEIK |  |  |  |  | 1.4 nM | 0.000164 s⁻¹ | 117000 M⁻¹ s⁻¹ | 1.71 nM | 0.000193 s⁻¹ | 113000 M⁻¹ s⁻¹

The remaining lines, values ahead:

Row | Kd [1] | koff [1] | kon [1] | fold improved affinity over the parent clone C [2] | Kd [3] | koff [3] | kon [3] | Kd [4] | koff [4] | kon [4] | Binder
6 | 34.1 nM | 0.000322 s⁻¹ | 9440 M⁻¹ s⁻¹ |  |  |  |  |  |  |  | Antibody A (AbA) (antibody, V domains shown) VH: EVQLLESGGGLVQPGGSLRLSCAASGFTFNNYWMTWVRQAPGKGLEWVSSISSSGGSIYYPDRVKGRFTISRDNSKNTLYLQMNSLRAEDTAVYYCARDERWAGAMDAWGQGTTVTVSS VL: DIQMTQSPSSLSASVGDRVTITCKASQNINKNLDWYQQKPGKAPKLLIYETNNLQTGVPSRFSGSGSGTDFTLTISSLQPEDFATYYCYQHNSRFTFGQGTKLEIK
7 | 25.3 nM | 0.000282 s⁻¹ | 11100 M⁻¹ s⁻¹ | > 4 fold |  |  |  |  |  |  | Antibody C (AbC) (antibody, IgG1, V domains shown) VH: EVQLVESGGGLVQPGGSLRLSCAASGFTFNNYWMTWVRQAPGKGLEWVSSISSSGGSIYYPDSVKDRFTISRDNAKNSLYLQMNSLRAEDMAVYYCARLYYYDGGGDAWGQGTLVTVSS VL: GIQMTQSPSSLSASVGDRVTITCKASQDINKYLDWYQQKPGKAPKLLIYNTNNLHTGIPSRFSGSGSGTDYTLTISSLQPEDFATYYCLQHISRWTFGGGTKVEIK
8 | 51.5 nM | 0.00042 s⁻¹ | 8160 M⁻¹ s⁻¹ |  |  |  |  |  |  |  | Antibody B (AbB) (antibody, IgG1, V domains shown) VH: EVQLVESGGGLVQPGGSLRLSCAASGFTFTNFWMAWIRQAPGKGLEWVASISSSGGSIYYPDSVKDRFTISRDNSKNTLYLQMNSLRAEDTAVYYCVKFHHYSGGGDAWGQGTLVTVSS VL: DIQMTQSPSSLSASVGDRVTITCKASQNINKYLDWYQQKPGKAPKLLIHYTNNLHTGIPSRFSGSGSGTDYTLTISSLQPEDFATYYCLQHSSRWTFGGGTKVEIK
9 |  |  |  |  | 4.24 nM | 0.000537 s⁻¹ | 127000 M⁻¹ s⁻¹ | 4.39 nM | 0.000544 s⁻¹ | 124000 M⁻¹ s⁻¹ | Antibody 7 (Ab7) (antibody, V domains shown) VH: QVQLVESGGGLVKPGGSLRLSCAASGFTFGGYSMNWVRQAPGKGLEWVSYISISGATITYADSVKGRFTISRDNAKNSLYLQMNSLRAEDTAVYYCARGGQYYYDSSDYGEVAFDIWGQGTMVTVSS VL: DIVMTQSPLSLPVTPGEPASISCRSSQSLVSSGYNYLDWYLQKPGQSPQLLIYFGSSRASGVPDRFSGSGSGTDFTLKISRVEAEDVGVYYCMQRRRTPPFTFGGGTKVEIK
